IntAct's records for PubMed 19596235

B1: Structure-specific endonuclease subunit SLX4 (Homo sapiens), Q8IY92 (parent)
chain: MKLSVNEAQLGFYLGSLSHLSACPGIDPRSSEDQPESLKTGQMMDESDEDFKELCASFFQRVKKHGIKEVSGERKTQKAASNGTQIRSKLKRTKQTATKTKTLQGPAEKKPPSGSQAPRTKKQRVTKWQASEPAHSVNGEGGVLASAPDPPVLRETAQNTQTGNQQEPSPNLSREKTRENVPNSDSQPPPSCLTTAVPSPSKPRTAQLVLQRMQQFKRADPERLRHASEECSLEAAREENVPKDPQEEMMAGNVYGLGPPAPESDAAVALTLQQEFARVGASAHDDSLEEKGLFFCQICQKNLSAMNVTRREQHVNRCLDEAEKTLRPSVPQIPECPICGKPFLTLKSRTSHLKQCAVKMEVGPQLLLQAVRLQTAQPEGSSSPPMFSFSDHSRGLKRRGPTSKKEPRKRRKVDEAPSEDLLVAMALSRSEMEPGAAVPALRLESAFSERIRPEAENKSRKKKPPVSPPLLLVQDSETTGRQIEDRVALLLSEEVELSSTPPLPASRILKEGWERAGQCPPPPERKQSFLWEGSALTGAWAMEDFYTARLVPPLVPQRPAQGLMQEPVPPLVPPEHSELSERRSPALHGTPTAGCGSRGPSPSASQREHQALQDLVDLAREGLSASPWPGSGGLAGSEGTAGLDVVPGGLPLTGFVVPSQDKHPDRGGRTLLSLGLLVADFGAMVNNPHLSDVQFQTDSGEVLYAHKFVLYARCPLLIQYVNNEGFSAVEDGVLTQRVLLGDVSTEAARTFLHYLYTADTGLPPGLSSELSSLAHRFGVSELVHLCEQVPIATDSEGKPWEEKEAENCESRAENFQELLRSMWADEEEEAETLLKSKDHEEDQENVNEAEMEEIYEFAATQRKLLQEERAAGAGEDADWLEGGSPVSGQLLAGVQVQKQWDKVEEMEPLEPGRDEAATTWEKMGQCALPPPQGQHSGARGAEAPEQEAPEEALGHSSCSSPSRDCQAERKEGSLPHSDDAGDYEQLFSSTQGEISEPSQITSEPEEQSGAVRERGLEVSHRLAPWQASPPHPCRFLLGPPQGGSPRGSHHTSGSSLSTPRSRGGTSQVGSPTLLSPAVPSKQKRDRSILTLSKEPGHQKGKERRSVLECRNKGVLMFPEKSPSIDLTQSNPDHSSSRSQKSSSKLNEEDEVILLLDSDEELELEQTKMKSISSDPLEEKKALEISPRSCELFSIIDVDADQEPSQSPPRSEAVLQQEDEGALPENRGSLGRRGAPWLFCDRESSPSEASTTDTSWLVPATPLASRSRDCSSQTQISSLRSGLAVQAVTQHTPRASVGNREGNEVAQKFSVIRPQTPPPQTPSSCLTPVSPGTSDGRRQGHRSPSRPHPGGHPHSSPLAPHPISGDRAHFSRRFLKHSPPGPSFLNQTPAGEVVEVGDSDDEQEVASHQANRSPPLDSDPPIPIDDCCWHMEPLSPIPIDHWNLERTGPLSTSSPSRRMNEAADSRDCRSPGLLDTTPIRGSCTTQRKLQEKSSGAGSLGNSRPSFLNSALWDVWDGEEQRPPETPPPAQMPSAGGAQKPEGLETPKGANRKKNLPPKVPITPMPQYSIMETPVLKKELDRFGVRPLPKRQMVLKLKEIFQYTHQTLDSDSEDESQSSQPLLQAPHCQTLASQTYKPSRAGVHAQQEATTGPGAHRPKGPAKTKGPRHQRKHHESITPPSRSPTKEAPPGLNDDAQIPASQESVATSVDGSDSSLSSQSSSSCEFGAAFESAGEEEGEGEVSASQAAVQAADTDEALRCYIRSKPALYQKVLLYQPFELRELQAELRQNGLRVSSRRLLDFLDTHCITFTTAATRREKLQGRRRQPRGKKKVERN

Variants of: B1
Settings: with plk1_human PLK1, P53350
Chain of plk1_human PLK1, P53350 (P53350 whole entry): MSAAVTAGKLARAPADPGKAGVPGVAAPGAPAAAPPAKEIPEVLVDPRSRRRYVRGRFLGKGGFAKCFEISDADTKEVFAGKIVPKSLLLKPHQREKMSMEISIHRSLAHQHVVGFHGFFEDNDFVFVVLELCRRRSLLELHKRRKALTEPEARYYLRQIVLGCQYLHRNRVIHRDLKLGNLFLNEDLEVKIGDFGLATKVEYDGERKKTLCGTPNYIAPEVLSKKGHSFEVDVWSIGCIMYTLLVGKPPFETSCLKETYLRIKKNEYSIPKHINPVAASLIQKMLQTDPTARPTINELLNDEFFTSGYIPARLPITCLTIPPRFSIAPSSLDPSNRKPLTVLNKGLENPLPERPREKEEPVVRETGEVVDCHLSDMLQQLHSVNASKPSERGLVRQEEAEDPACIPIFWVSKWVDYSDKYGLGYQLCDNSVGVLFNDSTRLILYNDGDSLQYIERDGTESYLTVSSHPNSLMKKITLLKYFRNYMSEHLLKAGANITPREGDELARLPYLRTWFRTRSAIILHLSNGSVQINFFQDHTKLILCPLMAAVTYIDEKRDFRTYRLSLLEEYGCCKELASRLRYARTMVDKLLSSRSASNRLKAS

| effect of a mutation on the interaction | Variant |
| --- | --- |
| decreasing interaction | S1453A |
